We go through four molecules from patent US20150299313A1 (Chugai, published 2015).

Substitutions are numbered along the chain they refer to. Bounds are passed on as bounds.

The target in experiment [1] is T1, soluble human IL-6 receptor (human, UniProt P08887 20-357).
T1 construct: also called hsIL-6R; hIL6R
T1 sequence: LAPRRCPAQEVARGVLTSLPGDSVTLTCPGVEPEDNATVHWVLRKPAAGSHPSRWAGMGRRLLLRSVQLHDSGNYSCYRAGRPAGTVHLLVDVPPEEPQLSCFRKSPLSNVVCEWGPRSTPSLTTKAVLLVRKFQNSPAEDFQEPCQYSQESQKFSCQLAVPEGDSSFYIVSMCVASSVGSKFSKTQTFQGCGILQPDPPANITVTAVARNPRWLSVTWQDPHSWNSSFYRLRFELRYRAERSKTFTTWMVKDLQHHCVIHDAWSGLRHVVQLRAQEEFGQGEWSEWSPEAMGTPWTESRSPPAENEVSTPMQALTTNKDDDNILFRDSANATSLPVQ
The experiment in a line: SPR (Biacore T100), pH 7.4, 37 C. On the procedure:
(§1) All samples were measured at 37° C.
(§2) Individual parameters were calculated by use of Biacore T100 Evaluation Software (GE Healthcare).

In experiment [2] the target is T1, soluble human IL-6 receptor. The experiment can be described thus: SPR (Biacore T100), 3 uM CaCl2, pH 7.4, 37 C (summary table). On the procedure: as §1
From the sensorgram obtained by measurement, an association constant, ka (1/Ms) and a dissociation constant kd (1/s) as kinetics parameters were computationally obtained. From the values, KD (M) of each antibody to a human IL-6 receptor was calculated. Individual parameters were calculated by use of Biacore T100 Evaluation Software (GE Healthcare).
as §2
On the technique in general: Surface plasmon resonance follows binding to a sensor surface in real time, without labels.

Experiment [3] has the same target. The experiment in a line: SPR (Biacore T100), 3 uM CaCl2, pH 7.4, 37 C; roughly calculated by Req=C*Rmax/(KD+C)+RI; 3 µM CaCl2; KD estimated by Expression 1.
Experiment [4] shares this target. The experiment can be described thus: SPR (Biacore T100), antibody captured on anti-human IgG F(ab')2, human IL-6 receptor as analyte, 37 C, pH 6.0. On the procedure: (§3) Using Biacore T100 (GE Healthcare), kinetic analysis of antigen-antibody reactions between each of GL1-IgG1_kif+ and GL5-IgG1_kif+ and a human IL-6 receptor was performed. An appropriate amount of Anti-Human IgG (γ-chain specific) F(ab′)2 fragment antibody produced in goat (Sigma) was immobilized onto Sensor chip CM5 (GE Healthcare) by the amine coupling method and then a target antibody was allowed to capture. Subsequently, a human IL-6 receptor dilution solution and a running buffer (a blank) were injected at a flow rate of 20 μL/min for 3 minutes to allow the human IL-6 receptor to interact with the antibody captured on the sensor chip. Either one of two types of running buffers (pH 7.4 and pH 6.0 containing 10 mmol/L ACES, 150 mmol/L NaCl, and 0.05% (w/v) Tween20) was used, and each buffer was employed for dilution of IL-6R. Thereafter, a running buffer was fed at a flow rate 20 μL/min for 5 minutes. After dissociation of the IL-6 receptor was observed, a 10 mmol/L Glycine-HCl (pH 1.5) solution was injected at a flow rate of 30 μL/min for 5 seconds. This procedure was repeated five times to regenerate the sensor chip. All samples were measured at 37° C. […] From the values, KD (M) of each antibody to a human IL-6 receptor was calculated. Individual parameters were calculated by use of Biacore T100 Evaluation Software (GE Healthcare).

The target is the same in experiment [5]. The experiment in a line: SPR (Biacore T100), antibody captured on anti-human IgG F(ab')2, human IL-6 receptor as analyte, 37 C, pH 7.4. The method, then: as §3

B1: FH4-IgG1 (antibody, V domains shown)
VH: QVQLVQSGAEVKKPGSSVKVSCKASGGTFSSYAISWVRQAPGQGLEWMGGIIPIFGTANYAQKFQGRVTITADESTSTAYMELSSLRSEDTAVYYCARERDYYDSSGYYDAFDIWGQGTMVTVSS
VL: ETTVTQSPSFLSASVGDRVTITCITTTDIDDDMNWFQQEPGKAPKLLISEGNILRPGVPSRFSSSGYGTDFTLTISKLQPEDFATYYCLQSDNLPFTFGQGTKLEIKR
notes: Ca-dependent anti-IL-6R antibody from a human phage library
As for B1, the “Ca dependency (KD at 3 uM CaCl2 against KD at 2 mM CaCl2)” value in experiment [1] was not below 60 fold. Also, the Kd (as a rule, a measure of binding affinity in units of concentration) was not below 34000 nM in experiment [2] and approximately 34000 nM in experiment [3].

B2: 6RL#9-IgG1 (antibody, V domains shown)
VH: QVQLVQSGAEVKKPGASVKVSCKASGYTFTSYYMHWVRQAPGQGLEWMGIINPSGGSTSYAQKFQGRVTMTRDTSTSTVYMELSSLRSEDTAVYYCARDDPGGGEYYFDYWGQGTLVTVSS
VL: QSVLTQPPSVSGAPGQRVTISCTGSRSNMGAGYDVHWYQLLPGAAPKLLISHNTHRPSGVPDRFSGSKSGASASLAITGLQAEDEADYYCQSHDSSLSAVVFGGGTKLTVLS
notes: as for B1
As to B2, in experiment [1], the “Ca dependency (KD at 3 uM CaCl2 against KD at 2 mM CaCl2)” value was not below 120 fold. Moreover, the results for the Kd in experiment [2] and in experiment [3] were not below 31000 nM and approximately 31000 nM, respectively.

B3: GL1-IgG1_kif+ (antibody)
heavy: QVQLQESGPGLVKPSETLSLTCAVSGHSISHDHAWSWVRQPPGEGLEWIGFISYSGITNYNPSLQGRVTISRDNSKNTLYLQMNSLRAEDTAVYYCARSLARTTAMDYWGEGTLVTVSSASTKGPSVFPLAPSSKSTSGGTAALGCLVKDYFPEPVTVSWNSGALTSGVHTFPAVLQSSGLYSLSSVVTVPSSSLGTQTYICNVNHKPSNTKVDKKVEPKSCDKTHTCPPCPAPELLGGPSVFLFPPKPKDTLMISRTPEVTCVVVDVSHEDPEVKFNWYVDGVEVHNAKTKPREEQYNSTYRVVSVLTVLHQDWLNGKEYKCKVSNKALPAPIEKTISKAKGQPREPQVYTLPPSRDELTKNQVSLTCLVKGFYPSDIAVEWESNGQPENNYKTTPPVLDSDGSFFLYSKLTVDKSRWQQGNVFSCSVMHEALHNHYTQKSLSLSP
light: DIQMTQSPSSLSASVGDSVTITCQASTDISSHLNWYQQKPGKAPELLIYYGSHLLSGVPSRFSGSGSGTDFTFTISSLEAEDAATYYCGQGNRLPYTFGQGTKVEIERTVAAPSVFIFPPSDEQLKSGTASVVCLLNNFYPREAKVQWKVDNALQSGNSQESVTEQDSKDSTYSLSSTLTLSKADYEKHKVYACEVTHQGLSSPVTKSFNRGEC
modifications: high mannose sugar chain (expressed in the presence of kifunensine)
notes: Expressed with 10 ug/mL kifunensine in the culture; also called GL1-G1_kif+
B3: the values for the Kd in experiment [4] and in experiment [5] were 71 nM and 1.5 nM, respectively.

B4: GL5-IgG1_kif+ (antibody)
heavy: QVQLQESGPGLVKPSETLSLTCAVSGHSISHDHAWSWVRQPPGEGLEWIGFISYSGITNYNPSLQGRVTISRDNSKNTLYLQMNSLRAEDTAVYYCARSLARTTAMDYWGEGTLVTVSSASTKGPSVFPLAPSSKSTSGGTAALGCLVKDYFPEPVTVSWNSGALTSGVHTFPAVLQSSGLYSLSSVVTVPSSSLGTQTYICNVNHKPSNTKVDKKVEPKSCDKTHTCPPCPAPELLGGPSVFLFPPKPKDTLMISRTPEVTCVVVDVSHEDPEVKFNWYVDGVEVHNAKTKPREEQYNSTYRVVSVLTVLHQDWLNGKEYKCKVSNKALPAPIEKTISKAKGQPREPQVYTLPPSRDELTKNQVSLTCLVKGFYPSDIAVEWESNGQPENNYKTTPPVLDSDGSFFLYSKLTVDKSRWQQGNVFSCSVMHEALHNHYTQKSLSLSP
light: B3 light with S18N, Q24N
modifications: two high mannose N-linked sugar chains (Man6-Man9 with Man9) on the light chain; high mannose sugar chain (expressed in the presence of kifunensine)
notes: Expressed with 10 ug/mL kifunensine in the culture; also called GL5-G1_kif+
As to B4, the Kd in experiment [4] is 66 nM; in experiment [5], 1.4 nM.
